Paper PMC7442819, “Taf14 recognizes a common motif in transcriptional machineries and facilitates their clustering by phase separation” (Nature Communications, 2020)
“And” between values parts separate entries of the source, which are not always exact repeats. Equal entries are not always repeated.

B14: Taf14ET (Taf14_(174–244)) (domain or fragment, Saccharomyces cerevisiae, UniProt P35189 174-244, looked up)
chain: KGSVDLEKLAFGLTKLNEDDLVGVVQMVTDNKTPEMNVTNNVEEGEFIIDLYSLPEGLLKSLWDYVKKNTE
notes: Taf14, Saccharomyces cerevisiae, ET domain, residues 174-244; 15N- or 15N/13C-labelled for NMR; also called Taf14 ET domain; 15N-Taf14ET; source: E. coli Rosetta, purified (Ni-NTA, on-beads digestion, SEC)
B15: GST-Taf14_(174–244) (domain or fragment, Saccharomyces cerevisiae, UniProt P35189 174-244, looked up)
chain: KGSVDLEKLAFGLTKLNEDDLVGVVQMVTDNKTPEMNVTNNVEEGEFIIDLYSLPEGLLKSLWDYVKKNTE
notes: Taf14, Saccharomyces cerevisiae, ET domain, residues 174-244; also called GST-Taf14ET; GST-tagged Taf14ET; source: E. coli Rosetta, purified (Ni-NTA, eluted as GST-fused protein, SEC); not shown: 6*His-GST, N-terminal, kept

Legend:
[1] = biological target: B14; experiment: ITC; peptide at 1.0 mM in the syringe titrated into Taf14ET at 0.1 mM in the cell; 20 mM phosphate pH 7.0, 100 mM NaCl, 2 mM DTT; 25 °C; one binding site model; settings: both partners purified
[2] = biological target: T1, Taf14ET (Taf14_(174–244)) (Saccharomyces cerevisiae, UniProt P35189 174-244); experiment: ITC
T1 chain: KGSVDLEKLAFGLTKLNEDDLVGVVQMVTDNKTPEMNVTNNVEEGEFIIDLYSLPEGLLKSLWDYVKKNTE

[3] = biological target: T2, Taf14ET (Taf14_(174–244)) (Saccharomyces cerevisiae), P35189; experiment: ITC; settings: modification not given
T2 chain: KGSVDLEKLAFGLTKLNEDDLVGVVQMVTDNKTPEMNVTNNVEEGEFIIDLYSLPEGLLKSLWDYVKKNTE

[4] = biological target: T1, Taf14ET (Taf14_(174–244)); experiment: ITC
[5] = biological target: Taf14ET F220R (Saccharomyces cerevisiae, UniProt P35189 174-244, F220R); experiment: ITC
[6] = biological target: Taf14ET I222R (Saccharomyces cerevisiae, UniProt P35189 174-244, I222R); experiment: ITC
[7] = biological target: T3, Taf14ET F220A (Saccharomyces cerevisiae); experiment: ITC
T3 chain: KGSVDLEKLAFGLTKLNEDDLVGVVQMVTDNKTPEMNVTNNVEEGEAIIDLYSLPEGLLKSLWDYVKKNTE

[8] = biological target: T1, Taf14ET (Taf14_(174–244)); experiment: ITC
[9] = biological target: B15; experiment: pull-down; GST-tagged ET domain (25 μg) and binding partner (50 μg) with glutathione–Sepharose 4B beads; 25 mM Tris-HCl pH 8.0, 150 mM NaCl, 2 mM DTT; 4 °C, 3 h; SDS-PAGE; settings: both partners purified
[10] = biological target: Sth1EBM I1208A (Saccharomyces cerevisiae, UniProt P32597 1183-1240, I1208A); experiment: ITC
[11] = biological target: Sth1EBM L1210A (Saccharomyces cerevisiae, UniProt P32597 1183-1240, L1210A); experiment: ITC
[12] = biological target: Sth1EBM K1207E (Saccharomyces cerevisiae, UniProt P32597 1183-1240, K1207E); experiment: ITC
[13] = biological target: Sth1EBM V1206A (Saccharomyces cerevisiae, UniProt P32597 1183-1240, V1206A); experiment: ITC
[14] = biological target: Sth1EBM L1204A (Saccharomyces cerevisiae, UniProt P32597 1183-1240, L1204A); experiment: ITC
[15] = biological target: Sth1EBM K1209E (Saccharomyces cerevisiae, UniProt P32597 1183-1240, K1209E); experiment: ITC
[16] = biological target: the molecule itself; experiment: 15N-1H HSQC at several concentrations; apo 15N-Taf14ET at 0.05, 0.1, 0.2 and 0.5 mM
[17] = biological target: T4, Sth1_(1183–1359) (Saccharomyces cerevisiae, UniProt P32597 1183-1359); experiment: pull-down; GST-tagged ET domain (25 μg) and binding partner (50 μg) with glutathione–Sepharose 4B beads; 25 mM Tris-HCl pH 8.0, 150 mM NaCl, 2 mM DTT; 4 °C, 3 h; SDS-PAGE; settings: both partners purified
T4 construct: source: E. coli Rosetta, purified
T4 sequence (looked up): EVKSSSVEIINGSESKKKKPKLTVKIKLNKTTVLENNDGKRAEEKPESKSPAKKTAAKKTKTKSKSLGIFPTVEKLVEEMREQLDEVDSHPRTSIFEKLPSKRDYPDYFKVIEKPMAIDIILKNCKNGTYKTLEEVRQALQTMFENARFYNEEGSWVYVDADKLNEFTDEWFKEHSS

B1: Tfg1 fragment containing both motifs (domain or fragment)
chain: DTLSKSKRSSPKKQQKKATNAHVHKEPTLRVKSIKNCVIILKGDKKILKSFPEGEWNPQTTKAVDSSNNASNTVPSPIKQEEGLNSTVAEREETPAPTITEKDIIEAIGDGKVNIKEFGKFIRRKYPGAENKKLMFAIVKKLCRKVGNDHMELKKE
Kd [1]: ~0.33 µM

B2: Snf5_(771–800) (peptide, UniProt P18480 771-800, looked up)
peptide: SPPCYIIDHIPGHSLLLSIKLPGKVNTKEE
notes: also called Snf5EBM; source: synthetic peptide (Scilight-Peptide and GenScript) for NMR
Kd [2]: 2.48 µM
binding result [1]: binds

DSKLNAKITLKQYHVKRLKKLIN [Ino80EBM I373A]
Kd [3]: 3.86 µM

DSKLNIKITAKQYHVKRLKKLIN [Ino80EBM L377A]
Kd [3]: 3.87 µM

B3: Sas3_(111–129) (peptide, UniProt P34218 111-129, looked up)
peptide: SEELKVRIKYDSIKFFNFE
notes: Sas3, Saccharomyces cerevisiae, residues 111-129; source: synthetic peptide (Scilight-Peptide and GenScript) for NMR
Kd [2]: 31.3 µM
binding result [1]: binds

B4: Tfg1 motif from 613 to 628 (peptide, UniProt P41895 613-628, looked up)
peptide: IKNCVIILKGDKKILK
notes: Tfg1, Saccharomyces cerevisiae, first motif, residues 613-628
Kd [1]: ~17 µM

B5: Tfg1 motif from 685 to 700 (peptide, UniProt P41895 685-700, looked up)
peptide: EAIGDGKVNIKEFGKF
notes: Tfg1, Saccharomyces cerevisiae, second motif, residues 685-700
Kd [1]: ~9 µM

B6: Sth1EBM (Sth1_(1183–1240)) (domain or fragment, Saccharomyces cerevisiae, UniProt P32597 1183-1240, looked up)
chain: EVKSSSVEIINGSESKKKKPKLTVKIKLNKTTVLENNDGKRAEEKPESKSPAKKTAAK
notes: source: E. coli Rosetta, purified (Ni-NTA, on-beads digestion, SEC)
Kd [4]: 0.05 µM
Kd [5]: 3.5 µM
Kd [6]: 54.6 µM
Kd [7]: 0.68 µM
Kd [8]: 0.372 µM and 0.194 µM
Kd [1]: ~0.055 µM

B7: Sth1EBM L1210A (domain or fragment, Saccharomyces cerevisiae, UniProt P32597 1183-1240, looked up)
chain: EVKSSSVEIINGSESKKKKPKLTVKIKANKTTVLENNDGKRAEEKPESKSPAKKTAAK
notes: source: E. coli Rosetta, purified (same protocol as the wild type)
binding result [1]: binds

B8: Sth1EBM K1209E (domain or fragment, Saccharomyces cerevisiae, UniProt P32597 1183-1240, looked up)
chain: EVKSSSVEIINGSESKKKKPKLTVKIELNKTTVLENNDGKRAEEKPESKSPAKKTAAK
notes: as for B7
fold increase of KD against wild-type Sth1EBM [1]: 79 fold

B9: Sth1EBM V1206A (domain or fragment, Saccharomyces cerevisiae, UniProt P32597 1183-1240, looked up)
chain: EVKSSSVEIINGSESKKKKPKLTAKIKLNKTTVLENNDGKRAEEKPESKSPAKKTAAK
notes: as for B7
binding result [1]: binds

B10: Sth1EBM L1204A (domain or fragment, Saccharomyces cerevisiae, UniProt P32597 1183-1240, looked up)
chain: EVKSSSVEIINGSESKKKKPKATVKIKLNKTTVLENNDGKRAEEKPESKSPAKKTAAK
notes: as for B7
binding result [1]: binds

B11: Sth1EBM K1207E (domain or fragment, Saccharomyces cerevisiae, UniProt P32597 1183-1240, looked up)
chain: EVKSSSVEIINGSESKKKKPKLTVEIKLNKTTVLENNDGKRAEEKPESKSPAKKTAAK
notes: as for B7
fold increase of KD against wild-type Sth1EBM [1]: 154 fold

B12: Sth1EBM I1208A (domain or fragment, Saccharomyces cerevisiae, UniProt P32597 1183-1240, looked up)
chain: EVKSSSVEIINGSESKKKKPKLTVKAKLNKTTVLENNDGKRAEEKPESKSPAKKTAAK
notes: also called Sth1^I1208A; source: E. coli Rosetta, purified (same protocol as the wild type)
fold increase of KD against wild-type Sth1EBM [1]: 270 fold

KKKPKLTVKIKLNKTTVLENNDGKRAE (domain or fragment, Saccharomyces cerevisiae, UniProt P32597 1199-1225, looked up, source: E. coli Rosetta, purified) [Sth1_(1199–1225)]
binding result [9]: binds

B13: Taf2_(1393–1406) (peptide, UniProt P23255 1393-1406, looked up)
peptide: RSFMVKIRTKNDAK
notes: Taf2, Saccharomyces cerevisiae, residues 1393-1406; source: synthetic peptide (Scilight-Peptide and GenScript) for NMR
Kd [2]: 0.8 µM
binding result [1]: binds

B14
Kd [10]: 13.4 µM
Kd [11]: 1.14 µM
Kd [12]: 3.94 µM and 7.69 µM
Kd [13]: 2.04 µM
Kd [14]: 2.06 µM
Kd [15]: 7.69 µM and 3.94 µM
binding result [16]: binds

B15
binding result [17]: binds

SPPCYIIDHIPGHSLLLSAKLPGKVNTKEE [Snf5EBM I789A]
Kd [3]: 189 µM

B16: Ino80_(368–390) (peptide, UniProt P53115 368-390, looked up)
peptide: DSKLNIKITLKQYHVKRLKKLIN
notes: Ino80, Saccharomyces cerevisiae, residues 368-390; also called Ino80EBM; source: synthetic peptide (Scilight-Peptide and GenScript) for NMR
Kd [2]: 0.25 µM
binding result [1]: binds

SPPCYIIDHIPGHSLLASIKLPGKVNTKEE [Snf5EBM L787A]
Kd [3]: 41.5 µM
